Results reported in PMC5762833, “Direct Molecular Fishing of New Protein Partners for Human Thromboxane Synthase” (Acta Naturae, 2017).

T1: Human thromboxane synthase (TBXAS1) (human, UniProt P24557 1-533)
T1 construct: thromboxane synthase (TBXAS1, CYP5A1), human, recombinant; Covalently immobilised on CNBr-Sepharose 4B (fishing) or on a CM5 chip (SPR); also used as analyte; also called CYP5A1
T1 sequence (looked up): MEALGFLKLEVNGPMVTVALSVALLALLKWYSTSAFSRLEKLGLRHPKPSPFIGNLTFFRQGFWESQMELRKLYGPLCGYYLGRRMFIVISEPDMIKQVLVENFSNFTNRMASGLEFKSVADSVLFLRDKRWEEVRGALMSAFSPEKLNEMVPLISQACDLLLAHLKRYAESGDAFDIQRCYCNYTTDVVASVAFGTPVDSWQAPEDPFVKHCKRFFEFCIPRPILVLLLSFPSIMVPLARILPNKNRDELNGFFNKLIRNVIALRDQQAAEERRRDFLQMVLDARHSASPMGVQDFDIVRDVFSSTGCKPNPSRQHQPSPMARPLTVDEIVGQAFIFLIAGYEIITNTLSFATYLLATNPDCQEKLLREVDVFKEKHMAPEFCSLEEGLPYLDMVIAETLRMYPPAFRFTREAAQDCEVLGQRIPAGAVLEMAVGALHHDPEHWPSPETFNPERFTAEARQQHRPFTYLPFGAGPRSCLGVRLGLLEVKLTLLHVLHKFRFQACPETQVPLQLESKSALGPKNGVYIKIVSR


Experiments:
[1] = target: T1, Human thromboxane synthase (TBXAS1); test: SPR; Biacore 3000; TBXAS1 amine-coupled to a CM5 chip (about 7,500 RU); analytes 50 nM to 5 μM injected for 10 min at 5 μL/min; control channel without protein; conditions: both partners purified
[2] = target: T1, Human thromboxane synthase (TBXAS1); test: SPR; as a2, with isatin added to the analyte samples at a final concentration of 100 μM and incubated for 15 min; conditions: both partners purified

Kd [1] [nM]	fold decrease in koff with 100 μM isatin against no isatin [2] [fold]	fold increase in affinity with 100 μM isatin against no isatin [2] [fold]	fold increase in kon with 100 μM isatin against no isatin [2] [fold]	fold difference of koff against TBXAS1•CYP11B2 (CYP2E1 the slower) [1] [fold]	fold difference of kon against TBXAS1•CYP11B2 (CYP2E1 the slower) [1] [fold]	Binder
690						aldosterone synthase (CYP11B2) (enzyme, UniProt P19099 25-503, looked up, aldosterone synthase (CYP11B2), mitochondrial cytochrome P450, recombinant) GTRAARAPRTVLPFEAMPQHPGNRWLRLLQIWREQGYEHLHLEMHQTFQELGPIFRYNLGGPRMVCVMLPEDVEKLQQVDSLHPCRMILEPWVAYRQHRGHKCGVFLLNGPEWRFNRLRLNPDVLSPKAVQRFLPMVDAVARDFSQALKKKVLQNARGSLTLDVQPSIFHYTIEASNLALFGERLGLVGHSPSSASLNFLHALEVMFKSTVQLMFMPRSLSRWISPKVWKEHFEAWDCIFQYGDNCIQKIYQELAFNRPQHYTGIVAELLLKAELSLEAIKANSMELTAGSVDTTAFPLLMTLFELARNPDVQQILRQESLAAAASISEHPQKATTELPLLRAALKETLRLYPVGLFLERVVSSDLVLQNYHIPAGTLVQVFLYSLGRNAALFPRPERYNPQRWLDIRGSGRNFHHVPFGFGMRQCLGRRLAEAEMLLLLHHVLKHFLVETLTQEDIKMVYSFILRPGTSPLLTFRAIN
430	2.5	5	2	15	10	4-nitrophenol-2-hydroxylase (CYP2E1), recombinant (enzyme, UniProt P05181 1-493, looked up, cytochrome P450 2E1, recombinant; also called cytochrome P450 2E1) MSALGVTVALLVWAAFLLLVSMWRQVHSSWNLPPGPFPLPIIGNLFQLELKNIPKSFTRLAQRFGPVFTLYVGSQRMVVMHGYKAVKEALLDYKDEFSGRGDLPAFHAHRDRGIIFNNGPTWKDIRRFSLTTLRNYGMGKQGNESRIQREAHFLLEALRKTQGQPFDPTFLIGCAPCNVIADILFRKHFDYNDEKFLRLMYLFNENFHLLSTPWLQLYNNFPSFLHYLPGSHRKVIKNVAEVKEYVSERVKEHHQSLDPNCPRDLTDCLLVEMEKEKHSAERLYTMDGITVTVADLFFAGTETTSTTLRYGLLILMKYPEIEEKLHEEIDRVIGPSRIPAIKDRQEMPYMDAVVHEIQRFITLVPSNLPHEATRDTIFRGYLIPKGTVVVPTLDSVLYDNQEFPDPEKFKPEHFLNENGKFKYSDYFKPFSTGKRVCAGEGLARMELFLLLCAILQHFNLKPLVDPKDIDLSPIHIGFGCIPPRYKLCVIPRS
